Measurements taken from the supplement of paper PMC7877785.
± gives the uncertainty stated by the source.

Assay: self-splicing fitness, log relative to wild type (ln ratio); higher = more splicing; Tetrahymena group I intron in knt gene, E. coli kanamycin selection, DiMSum; sequences stand for … in CUCUCU…GGAGGGAAAAGUUAUCAGGCAUGCACCUGGUAGCUAGUCUUUAAACCAAUAGAUUGCAUCGGUUUAAAAGGCAAGACCGUCAAAUUGCGGGAAAGGGGUCAACAGCCGUUCAGUACCAAGUCUCAGGGGAAACUUUGAGAUGGCCUUGCAAAGGGUAUGGUAAUAAGCUGACGGACAUGGUCCUAACCACGCAGCCAAGUCCUAAGUCAACAGAUCUUCUGUUGAUAUGGAUGCAGUUCACAGACUAAAUGUCGGUCGGGGAAGAUGUAUUCUUCUCAUAAGAUAUAGUCGGACCUCUCCUUAAUGGGAGCUAGCGGAUGAAGUGAUGCAACACUGGAGCCGCUGGGAACUAAUUUGUAUGCGAAAGUAUAUUGAUUAGUUUUGGAGUACUCGUGGUCG
Method in brief: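 Library with all eight P1ex-region intron nucleotides randomised, intron inside the knt kanamycin-resistance gene on pET-22b(+), in E. coli BL21(DE3). Cells grew overnight at 37°C or 30°C on LB agar with or without 25 μg/mL kanamycin (plus 100 μg/mL carbenicillin, 50 μM IPTG, 0.2% rhamnose), in six replicate transformations. Pooled colonies were amplicon-sequenced on Illumina HiSeq 2500. DiMSum fitness is the error-weighted combination of wild-type-normalised replicate fold changes, kanamycin versus none.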

| Sequence | self-splicing fitness (ln) (30 °C) | self-splicing fitness (ln) (37 °C) |
| --- | --- | --- |
| CGAGAGCAAUAUUACGUGCA | -3.22 ± 0.23 | -3.2 ± 0.43 |
| CGAGAGCAAUAUUACGUUCU | -3.16 ± 0.13 | -2.83 ± 0.17 |
| CGAGAGCAAUAUUACGUUGA | -2.79 ± 0.38 | – |
| CGAUAGCAAUAUUACGAAAA | -3.85 ± 0.48 | -2.7 ± 0.3 |
| CGAUAGCAAUAUUACGAUAG | -0.572 ± 0.089 | -0.275 ± 0.1 |
| CGAUAGCAAUAUUACGAUGG | -0.196 ± 0.12 | -0.185 ± 0.2 |
| CGAUAGCAAUAUUACGAUUA | -1.59 ± 0.13 | -0.77 ± 0.15 |
| CGAUAGCAAUAUUACGCCUG | -0.681 ± 0.15 | 0.308 ± 0.11 |
| CGAUAGCAAUAUUACGCGAC | -2.59 ± 0.32 | -1.35 ± 0.28 |
| CGAUAGCAAUAUUACGCGGG | -4.21 ± 0.31 | -2.42 ± 0.24 |
| CGAUAGCAAUAUUACGCGGU | -3.13 ± 0.27 | -1.94 ± 0.19 |
| CGAUAGCAAUAUUACGCUAU | -2.82 ± 0.19 | – |
| CGAUAGCAAUAUUACGCUUU | -3.56 ± 0.35 | -3.14 ± 0.34 |
| CGAUAGCAAUAUUACGGACC | -1.78 ± 0.36 | -1.7 ± 0.29 |
| CGAUAGCAAUAUUACGGCAC | -2.47 ± 0.33 | -1.49 ± 0.31 |
| CGAUAGCAAUAUUACGGCCA | -1.22 ± 0.12 | -0.957 ± 0.15 |
| CGAUAGCAAUAUUACGGGAG | -2.86 ± 0.24 | -2.39 ± 0.24 |
| CGAUAGCAAUAUUACGGGCG | -1.67 ± 0.12 | -0.602 ± 0.11 |
| CGAUAGCAAUAUUACGGGGA | – | -2.27 ± 0.28 |
| CGAUAGCAAUAUUACGGUAA | -3.58 ± 0.31 | -1.8 ± 0.27 |

| Sequence | self-splicing fitness (ln) (30 °C) | self-splicing fitness (ln) (37 °C) |
| --- | --- | --- |
| CGAUAGCAAUAUUACGGUAC | -3.93 ± 0.24 | -2.89 ± 0.25 |
| CGAUAGCAAUAUUACGGUGG | -1.03 ± 0.086 | -0.748 ± 0.09 |
| CGAUAGCAAUAUUACGUAAA | -2.6 ± 0.32 | -0.509 ± 0.26 |
| CGAUAGCAAUAUUACGUAGG | -0.695 ± 0.056 | -0.444 ± 0.068 |
| CGAUAGCAAUAUUACGUCUC | -2.61 ± 0.19 | -2.55 ± 0.32 |
| CGAUAGCAAUAUUACGUGAC | -2.87 ± 0.18 | -2.36 ± 0.23 |
| CGAUAGCAAUAUUACGUGCA | -2.67 ± 0.15 | -2.13 ± 0.16 |
| CGAUAGCAAUAUUACGUUAG | -0.734 ± 0.084 | -0.52 ± 0.093 |
| CGAUAGCAAUAUUACGUUUA | – | -2.57 ± 0.21 |
| CGCAAGCAAUAUUACGAUCA | -1.58 ± 0.12 | 0.00155 ± 0.11 |
| CGCAAGCAAUAUUACGAUUA | -2.6 ± 0.17 | -1.29 ± 0.15 |
| CGCAAGCAAUAUUACGCAUA | -3.81 ± 0.3 | -0.539 ± 0.15 |
| CGCAAGCAAUAUUACGCGAC | -3.77 ± 0.39 | -1.68 ± 0.18 |
| CGCAAGCAAUAUUACGCGCC | -3.06 ± 0.21 | -1.54 ± 0.17 |
| CGCAAGCAAUAUUACGCGGC | -3.05 ± 0.28 | -2.81 ± 0.38 |
| CGCAAGCAAUAUUACGCGUC | -3.7 ± 0.37 | -3.31 ± 0.35 |
| CGCAAGCAAUAUUACGCUUC | -3.18 ± 0.3 | – |
| CGCAAGCAAUAUUACGCUUG | -2.74 ± 0.2 | -1.87 ± 0.21 |
| CGCAAGCAAUAUUACGCUUU | -3.44 ± 0.21 | -2.34 ± 0.21 |
